Common to all, as to assay: cross-linking
For data set [1], the target named is Sir3 winged helix deletion (Sir3 1-850) (S. cerevisiae, UniProt P06701 1-850).
The data set “cross-linking” deals with the molecule itself.
The target of data set [2] is Sir2 (untagged final), full-length (S. cerevisiae, UniProt P06700 1-562).

Consider 2 molecules from PMC11703230 (bioRxiv, 2025).

Sir2 (untagged final), full-length, sequence (P06700 whole entry): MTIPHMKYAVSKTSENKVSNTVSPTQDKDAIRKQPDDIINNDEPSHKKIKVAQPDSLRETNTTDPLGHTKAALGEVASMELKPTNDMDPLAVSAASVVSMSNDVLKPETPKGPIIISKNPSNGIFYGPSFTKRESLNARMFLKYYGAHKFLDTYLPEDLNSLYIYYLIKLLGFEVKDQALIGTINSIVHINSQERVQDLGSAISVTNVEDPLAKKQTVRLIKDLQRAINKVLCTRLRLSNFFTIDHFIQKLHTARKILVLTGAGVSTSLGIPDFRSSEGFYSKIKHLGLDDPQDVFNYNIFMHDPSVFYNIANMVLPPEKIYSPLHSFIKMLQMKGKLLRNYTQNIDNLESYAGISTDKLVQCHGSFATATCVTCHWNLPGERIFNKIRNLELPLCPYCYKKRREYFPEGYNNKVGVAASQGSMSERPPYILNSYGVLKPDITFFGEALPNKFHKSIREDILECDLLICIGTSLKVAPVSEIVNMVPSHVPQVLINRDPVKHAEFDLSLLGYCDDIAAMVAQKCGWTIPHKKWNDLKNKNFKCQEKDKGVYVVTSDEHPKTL
Sir3 winged helix deletion (Sir3 1-850), sequence (P06701 1-850, stated change not applied): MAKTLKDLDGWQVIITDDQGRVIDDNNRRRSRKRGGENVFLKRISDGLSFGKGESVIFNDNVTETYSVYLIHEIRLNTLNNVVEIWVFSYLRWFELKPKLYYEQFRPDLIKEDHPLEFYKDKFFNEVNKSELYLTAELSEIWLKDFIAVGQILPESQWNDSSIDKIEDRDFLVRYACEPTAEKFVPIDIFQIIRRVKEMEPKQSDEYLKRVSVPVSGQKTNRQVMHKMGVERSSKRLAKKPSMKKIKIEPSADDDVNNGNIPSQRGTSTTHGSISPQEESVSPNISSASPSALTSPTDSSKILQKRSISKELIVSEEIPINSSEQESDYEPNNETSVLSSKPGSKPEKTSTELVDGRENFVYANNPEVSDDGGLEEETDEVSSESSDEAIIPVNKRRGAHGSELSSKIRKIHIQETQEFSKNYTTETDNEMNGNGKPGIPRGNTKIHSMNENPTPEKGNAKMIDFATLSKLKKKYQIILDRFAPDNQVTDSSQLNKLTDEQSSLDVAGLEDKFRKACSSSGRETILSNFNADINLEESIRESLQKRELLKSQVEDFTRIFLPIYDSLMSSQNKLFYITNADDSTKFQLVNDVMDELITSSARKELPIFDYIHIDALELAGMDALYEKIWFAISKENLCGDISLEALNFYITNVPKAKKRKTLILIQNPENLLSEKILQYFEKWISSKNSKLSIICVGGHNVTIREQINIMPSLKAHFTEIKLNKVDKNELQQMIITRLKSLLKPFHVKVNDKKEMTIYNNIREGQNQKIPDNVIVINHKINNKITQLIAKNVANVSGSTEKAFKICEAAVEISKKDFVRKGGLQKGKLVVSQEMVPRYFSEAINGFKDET

B1: MBP-Sir4(744-1358) (domain or fragment, S. cerevisiae, UniProt P11978 744-1358, looked up)
chain: PGKMELVYVSDSDDSSSDNDSLTDLESLSSGESNEIKVTNDLDTSAEKDQIQAGKWFDPVLDWRKSDRELTKNILWRIADKTTYDKETITDLIEQGIPKHSYLSGNPLTSVTNDICSVENYETSSAFFYQQVHKKDRLQYLPLYAVSTFENTNNTEKNDVTNKNINIGKHSQEQNSSSAKPSQIPTVSSPLGFEETKLSTTPTKSNRRVSHSDTNSSKPKNTKENLSKSSWRQEWLANLKLISVSLVDEFPSELSDSDRQIINEKMQLLKDIFANNLKSAISNNFRESDIIILKGEIEDYPMSSEIKIYYNELQNKPDAKKARFWSFMKTQRFVSNMGFDIQKSCEPVSISTSVKPHVVEPEHMADAKIMPKDILQITKKPLMVKNVKPSSPPDVKSLVQLSTMETKTLPEKKQFDSIFNSNKAKIIPGNGKHASENISLSFSRPASYGYFSVGKRVPIVEDRRVKQLDDITDSNTTEILTSVDVLGTHSQTGTQQSNMYTSTQKTELEIDNKDSVTECSKDMKEDGLSFVDIVLSKAASALDEKEKQLAVANEIIRSLSDEVMRNEIRITSLQGDLTFTKKCLENARSQISEKDAKINKLMEKDFQVNKEIKPY
Turning to B1, the binding result (in data set [1]; in “cross-linking”) was “binds” in each case.

B2: MBP-Sir4(1150-1358) (domain or fragment, S. cerevisiae, UniProt P11978 1150-1358, looked up)
chain: KTLPEKKQFDSIFNSNKAKIIPGNGKHASENISLSFSRPASYGYFSVGKRVPIVEDRRVKQLDDITDSNTTEILTSVDVLGTHSQTGTQQSNMYTSTQKTELEIDNKDSVTECSKDMKEDGLSFVDIVLSKAASALDEKEKQLAVANEIIRSLSDEVMRNEIRITSLQGDLTFTKKCLENARSQISEKDAKINKLMEKDFQVNKEIKPY
As to B2, the binding result in data set [2] is on record as “binds”.
